{"source": "paper PMC1887683", "molecular_target": "STAT1 (activated; HepG2 nuclear extract, IL-6) (UniProt P42224)", "sequence (P42224 whole entry)": "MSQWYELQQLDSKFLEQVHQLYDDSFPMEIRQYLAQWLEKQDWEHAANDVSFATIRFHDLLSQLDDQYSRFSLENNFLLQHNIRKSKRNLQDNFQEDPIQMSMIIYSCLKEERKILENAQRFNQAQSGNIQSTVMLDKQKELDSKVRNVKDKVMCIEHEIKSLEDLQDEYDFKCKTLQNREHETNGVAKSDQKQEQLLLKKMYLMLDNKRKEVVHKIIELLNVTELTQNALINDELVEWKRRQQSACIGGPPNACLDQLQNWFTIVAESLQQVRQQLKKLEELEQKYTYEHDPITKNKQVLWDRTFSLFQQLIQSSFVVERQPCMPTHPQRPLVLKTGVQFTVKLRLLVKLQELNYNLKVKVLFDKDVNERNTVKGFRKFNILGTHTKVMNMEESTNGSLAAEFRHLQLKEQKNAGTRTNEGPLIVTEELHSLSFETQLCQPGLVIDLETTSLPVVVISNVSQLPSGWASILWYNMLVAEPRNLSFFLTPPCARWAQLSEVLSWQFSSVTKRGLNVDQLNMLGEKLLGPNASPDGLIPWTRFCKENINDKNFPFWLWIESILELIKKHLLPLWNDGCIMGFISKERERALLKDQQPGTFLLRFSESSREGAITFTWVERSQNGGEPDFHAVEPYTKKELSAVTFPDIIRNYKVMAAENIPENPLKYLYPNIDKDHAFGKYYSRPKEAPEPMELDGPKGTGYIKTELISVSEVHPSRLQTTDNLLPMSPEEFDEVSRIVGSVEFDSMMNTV", "assay": "competition EMSA", "conditions": "scale: fold competition efficiency vs c-myc E2F", "data": [{"substance": "APRE (alpha2-macroglobulin)", "values": [{"measurement": "binding signal", "value": 5}]}]}
